Columns and labels:
Test in all cases: SPR (Biacore); KD of SG1 divided by KD of the variant for this FcgR;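 note: relative to parent M103205H795-SG1 carrying the SG1 human heavy chain constant region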
[1] = target: T1, cynomolgus monkey FcγRIIa1 extracellular domain with C-terminal His-tag (cynomolgus monkey)
T1 construct: Expressed in FreeStyle 293 cells and purified; also called cyno FcγRIIa1; cynoFcgRIIa1; not shown: C-terminal His-tag
T1 chain: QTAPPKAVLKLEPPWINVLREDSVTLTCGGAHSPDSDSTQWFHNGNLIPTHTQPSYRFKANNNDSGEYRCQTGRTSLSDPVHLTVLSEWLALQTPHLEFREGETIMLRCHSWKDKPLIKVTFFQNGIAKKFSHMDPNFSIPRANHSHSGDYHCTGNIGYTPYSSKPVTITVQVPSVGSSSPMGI
Method: (§1) The kinetic analysis of interactions between these antibodies and FcγR was carried out using BIACORE® T200 or BIACORE® 4000 (GE Healthcare). HBS-EP+ (GE Healthcare) was used as the running buffer, and the measurement temperature was set to 25° C. A chip produced by immobilizing Protein A. Protein A/G or mouse anti-human IgG kappa light chain (BD Biosciences) onto a Series S Sensor Chip CM4 or CM5 (GE Healthcare) by the amine-coupling method was used. […] After the measurement, the antibody captured on the chip was washed off by allowing reaction with 10 mM glycine-HCl, pH1.5 and 25 mM NaOH so that the chip was regenerated and used repeatedly. The sensorgrams obtained as measurement results were analyzed by the 1:1 Langmuir binding model using the BIACORE® Evaluation Software to calculate the binding rate constant ka (L/mol/s) and dissociation rate constant kd (l/s), and the dissociation constant KD (mol/L) was calculated from these values. […] Regarding such interactions, KD values were calculated using the following 1:1 binding model described in BIACORE® T100 Software Handbook BR1006-48 Edition AE.
(§2) The resultant variants were expressed using M103202L889-SK1 as light chain and their affinity to human and cynoFcγRs were evaluated (Table 20).

[2] = target: T2, cynomolgus monkey FcγRIIa2 extracellular domain with C-terminal His-tag (cynomolgus monkey)
T2 construct: Expressed in FreeStyle 293 cells and purified; also called cyno FcγRIIa2; cynoFcgRIIa2; not shown: C-terminal His-tag
T2 chain: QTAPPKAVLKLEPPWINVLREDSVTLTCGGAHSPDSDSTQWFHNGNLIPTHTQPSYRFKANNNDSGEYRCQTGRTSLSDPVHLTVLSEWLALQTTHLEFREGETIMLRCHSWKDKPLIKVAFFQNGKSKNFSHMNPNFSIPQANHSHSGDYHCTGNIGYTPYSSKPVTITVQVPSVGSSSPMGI
Method: as §1, §2

[3] = target: T3, cynomolgus monkey FcγRIIIaS extracellular domain with C-terminal His-tag (cynomolgus monkey, UniProt Q8SPW2 21-206 at identity 1.00))
T3 construct: Expressed in FreeStyle 293 cells and purified; also called cyno FcγRIIIaS; cynoFcγRIIIaS; not shown: C-terminal His-tag
T3 chain: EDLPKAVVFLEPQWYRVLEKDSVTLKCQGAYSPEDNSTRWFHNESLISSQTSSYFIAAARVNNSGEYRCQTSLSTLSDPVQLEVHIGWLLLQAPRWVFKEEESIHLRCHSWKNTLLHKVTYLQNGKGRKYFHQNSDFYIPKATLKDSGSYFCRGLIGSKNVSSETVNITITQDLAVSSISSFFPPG
Method: as §1, §2

[4] = target: T4, human FcγRIIaH extracellular domain with C-terminal His-tag (human, UniProt P12318 34-217)
T4 construct: Expressed in FreeStyle 293 cells and purified; also called human FcγRIIa (type H); FcgRIIaH; not shown: C-terminal His-tag
T4 sequence: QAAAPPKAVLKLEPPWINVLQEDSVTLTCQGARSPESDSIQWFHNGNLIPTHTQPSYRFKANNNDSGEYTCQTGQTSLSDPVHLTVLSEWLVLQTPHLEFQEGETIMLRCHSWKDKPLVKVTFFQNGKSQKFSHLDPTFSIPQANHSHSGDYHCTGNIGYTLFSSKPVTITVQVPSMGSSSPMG
Method: as §1, §2

[5] = target: T5, human FcγRIIaR extracellular domain with C-terminal His-tag (human, UniProt P12318 34-217)
T5 construct: Expressed in FreeStyle 293 cells and purified; also called human FcγRIIa (type R); FcgRIIaR; not shown: C-terminal His-tag
T5 chain: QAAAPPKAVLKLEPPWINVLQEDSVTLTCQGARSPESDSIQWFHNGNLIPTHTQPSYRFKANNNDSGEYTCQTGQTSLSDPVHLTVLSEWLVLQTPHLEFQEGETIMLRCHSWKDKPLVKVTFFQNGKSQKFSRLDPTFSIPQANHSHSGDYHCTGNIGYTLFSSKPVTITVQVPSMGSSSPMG
Method: as §1, §2

[6] = target: T6, human FcγRIIb extracellular domain with C-terminal His-tag (human, UniProt P31994 43-217)
T6 construct: Expressed in FreeStyle 293 cells and purified; also called humanFcgRIIb; not shown: C-terminal His-tag
T6 sequence: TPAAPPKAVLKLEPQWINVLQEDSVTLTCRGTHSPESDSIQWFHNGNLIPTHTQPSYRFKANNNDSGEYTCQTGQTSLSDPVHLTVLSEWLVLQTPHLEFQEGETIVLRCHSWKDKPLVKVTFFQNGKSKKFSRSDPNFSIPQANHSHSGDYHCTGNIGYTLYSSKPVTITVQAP
Method: as §1, §2

Row | Binder | KD fold (SG1 = 1) [1] [fold] | KD fold (SG1 = 1) [2] [fold] | KD fold (SG1 = 1) [3] [fold] | KD fold (SG1 = 1) [4] [fold] | KD fold (SG1 = 1) [5] [fold] | KD fold (SG1 = 1) [6] [fold]
1 | MS_M103205H795-SG1/M103202L889-SK1 (antibody, human IgG1, kappa, Anti-latent myostatin IgG; also called MS1032LO06-SG1) heavy: not shown light: DIVMTQSPATLSLSPGERATLSCTSSQSVYHANWLSWFQQKPGQPPKLLIYWASTLAYGVPSRFSGSGSGTDFTLTISSLQPEDAATYYCAGGYGGGRYAFGQGTKVEIKRTVAAPSVFIFPPSDEQLKSGTASVVCLLNNFYPREAKVQWKVDNALQSGNSQESVTEQDSKDSTYSLSSTLTLSKADYEKHKVYACEVTHQGLSSPVTKSFNRGEC | 1 | 1 | 1 | 1 | 1 | 1
2 | M103205H795-MY052 / M103202L889-SK1 (antibody, human IgG1, kappa, Fc variant of M103205H795-SG1, expressed with M103202L889-SK1 as light chain; parent of the position 396 variants) heavy: QVTLKESGPVLVKPTETLTLTCTVSGIDLSHDDISWVRQAPGKGLEWVGIISYAGSTYYASWAKGRLTISKDTSKNQVVLTMTNMDPVDTATYYCARGVPAYSHGGDLWGQGTLVTVSSASTKGPSVFPLAPSSKSTSGGTAALGCLVKDYFPEPVTVSWNSGALTSGVHTFPAVLQSSGLYSLSSVVTVPSSSLGTQTYICNVNHKPSNTKVDKKVEPKSCDKTHTCPPCPAPELLNGPSVFLFPPKPKDTLMISRTPEVTCVVVDVSEEDPEVKFNWYVDGVEVHNAKTKPREEQYNSTYRVVSVLTVLHQDWLNGKEYKCKVSNKALPAPIEKTISKAKGQPREPQVYTLPPSREEMTKNQVSLTCLVKGFYPSDIAVEWESNGQPENNYKTTPMVLDSDGSFFLYSKLTVDKSRWQQGNVFSCSVMHEALHNHYTQKSLSLSP light: DIVMTQSPATLSLSPGERATLSCTSSQSVYHANWLSWFQQKPGQPPKLLIYWASTLAYGVPSRFSGSGSGTDFTLTISSLQPEDAATYYCAGGYGGGRYAFGQGTKVEIKRTVAAPSVFIFPPSDEQLKSGTASVVCLLNNFYPREAKVQWKVDNALQSGNSQESVTEQDSKDSTYSLSSTLTLSKADYEKHKVYACEVTHQGLSSPVTKSFNRGEC | 2.3 | 3.4 | 0.24 | 0.8 | 0.8 | 6.4
3 | M103205H795-MY169 / M103202L889-SK1 (antibody, human IgG1, kappa, Position 396 variant derived from MY052, expressed with M103202L889-SK1 as light chain) heavy: QVTLKESGPVLVKPTETLTLTCTVSGIDLSHDDISWVRQAPGKGLEWVGIISYAGSTYYASWAKGRLTISKDTSKNQVVLTMTNMDPVDTATYYCARGVPAYSHGGDLWGQGTLVTVSSASTKGPSVFPLAPSSKSTSGGTAALGCLVKDYFPEPVTVSWNSGALTSGVHTFPAVLQSSGLYSLSSVVTVPSSSLGTQTYICNVNHKPSNTKVDKKVEPKSCDKTHTCPPCPAPELLNGPSVFLFPPKPKDTLMISRTPEVTCVVVDVSEEDPEVKFNWYVDGVEVHNAKTKPREEQYNSTYRVVSVLTVLHQDWLNGKEYKCKVSNKALPAPIEKTISKAKGQPREPQVYTLPPSREEMTKNQVSLTCLVKGFYPSDIAVEWESNGQPENNYKTTPDVLDSDGSFFLYSKLTVDKSRWQQGNVFSCSVMHEALHNHYTQKSLSLSP light: DIVMTQSPATLSLSPGERATLSCTSSQSVYHANWLSWFQQKPGQPPKLLIYWASTLAYGVPSRFSGSGSGTDFTLTISSLQPEDAATYYCAGGYGGGRYAFGQGTKVEIKRTVAAPSVFIFPPSDEQLKSGTASVVCLLNNFYPREAKVQWKVDNALQSGNSQESVTEQDSKDSTYSLSSTLTLSKADYEKHKVYACEVTHQGLSSPVTKSFNRGEC | 1.4 | 2.2 | 0.1 | 0.6 | 0.4 | 3.5
4 | M103205H795-MY168 / M103202L889-SK1 (antibody, human IgG1, kappa, Position 396 variant derived from MY052, expressed with M103202L889-SK1 as light chain) heavy: QVTLKESGPVLVKPTETLTLTCTVSGIDLSHDDISWVRQAPGKGLEWVGIISYAGSTYYASWAKGRLTISKDTSKNQVVLTMTNMDPVDTATYYCARGVPAYSHGGDLWGQGTLVTVSSASTKGPSVFPLAPSSKSTSGGTAALGCLVKDYFPEPVTVSWNSGALTSGVHTFPAVLQSSGLYSLSSVVTVPSSSLGTQTYICNVNHKPSNTKVDKKVEPKSCDKTHTCPPCPAPELLNGPSVFLFPPKPKDTLMISRTPEVTCVVVDVSEEDPEVKFNWYVDGVEVHNAKTKPREEQYNSTYRVVSVLTVLHQDWLNGKEYKCKVSNKALPAPIEKTISKAKGQPREPQVYTLPPSREEMTKNQVSLTCLVKGFYPSDIAVEWESNGQPENNYKTTPAVLDSDGSFFLYSKLTVDKSRWQQGNVFSCSVMHEALHNHYTQKSLSLSP light: DIVMTQSPATLSLSPGERATLSCTSSQSVYHANWLSWFQQKPGQPPKLLIYWASTLAYGVPSRFSGSGSGTDFTLTISSLQPEDAATYYCAGGYGGGRYAFGQGTKVEIKRTVAAPSVFIFPPSDEQLKSGTASVVCLLNNFYPREAKVQWKVDNALQSGNSQESVTEQDSKDSTYSLSSTLTLSKADYEKHKVYACEVTHQGLSSPVTKSFNRGEC | 1.5 | 2 | 0.08 | 0.4 | 0.4 | 2.7
5 | M103205H795-MY170 / M103202L889-SK1 (antibody, human IgG1, kappa, Position 396 variant derived from MY052, expressed with M103202L889-SK1 as light chain) heavy: QVTLKESGPVLVKPTETLTLTCTVSGIDLSHDDISWVRQAPGKGLEWVGIISYAGSTYYASWAKGRLTISKDTSKNQVVLTMTNMDPVDTATYYCARGVPAYSHGGDLWGQGTLVTVSSASTKGPSVFPLAPSSKSTSGGTAALGCLVKDYFPEPVTVSWNSGALTSGVHTFPAVLQSSGLYSLSSVVTVPSSSLGTQTYICNVNHKPSNTKVDKKVEPKSCDKTHTCPPCPAPELLNGPSVFLFPPKPKDTLMISRTPEVTCVVVDVSEEDPEVKFNWYVDGVEVHNAKTKPREEQYNSTYRVVSVLTVLHQDWLNGKEYKCKVSNKALPAPIEKTISKAKGQPREPQVYTLPPSREEMTKNQVSLTCLVKGFYPSDIAVEWESNGQPENNYKTTPEVLDSDGSFFLYSKLTVDKSRWQQGNVFSCSVMHEALHNHYTQKSLSLSP light: DIVMTQSPATLSLSPGERATLSCTSSQSVYHANWLSWFQQKPGQPPKLLIYWASTLAYGVPSRFSGSGSGTDFTLTISSLQPEDAATYYCAGGYGGGRYAFGQGTKVEIKRTVAAPSVFIFPPSDEQLKSGTASVVCLLNNFYPREAKVQWKVDNALQSGNSQESVTEQDSKDSTYSLSSTLTLSKADYEKHKVYACEVTHQGLSSPVTKSFNRGEC | 1.4 | 2.1 | 0.12 | 0.4 | 0.4 | 2.9
